Laboratory results as given in patent US10995119B2, “Peptide exhibiting hydrolytic activity and use thereof” (Okinawa Institute of Science and Technology School …, priority 2016, dated 2021).

Legend:
SOD1 2-12 = SOD1 2-12 (Homo sapiens, UniProt P00441); test: Hydrolysis activity against SOD1 2-12; assay type: biochemical; details: Example 3 (1); substrate SOD1 2-38 or SOD1 2-12
From the text: (§1) In JAL 1-22 C19M and JAL 7-22 C19M, Cys residues contained in JAL form S—S bonds during a reaction, and this makes fragment analysis difficult. On this account, JAL 1-22 and JAL 7-22 were modified so as to substitute Cys residues by Met.

[1] = molecular target: T1, bovine serum albumin (BSA) (Bos taurus, UniProt P02769); test: Cleavage of BSA as substrate; assay type: biochemical; details: BSA 0.025%
T1 construct: purchased Wako Pure Chemical Industries, Ltd
Experimental: (§2) On the other hand, by adding either HSA or BSA to the reaction solution, autodigestion of JAL 7-22 C 19M was […]. […] Since serum albumin is present in the body, it is considered that the hydrolytic peptide is suitable for use in the body. In experiments to be described below, the hydrolysis activity of JAL was measured in a reaction solution containing HSA.

Aβ1-20 = Aβ1-20 (Homo sapiens, UniProt P05067); test: Hydrolysis activity against Aβ1-20
Experimental: (§4) Further, any change in activity caused by addition of human serum albumin (HSA, Wako Pure Chemical Industries, Ltd., final concentration 0.025%) also was measured.
(§5) As substrates, Aβ42 in the form of soluble powder (authentic sample, Peptide Institute Inc.) and fragment peptides thereof, namely, Aβ1-20, Aβ11-29, and soluble Aβ28-42, were used. […] In the case of MS analysis, the MS analysis was performed after applying 20 μl of the reaction solution to HPLC and collecting an aliquot of the peak.
(§6) The present experiment examined activity against Aβ-Fs in Example 7.
(§7) As substrates, the same Aβ1-20 and Aβ11-29 as used in Example 7 were used.

[2] = molecular target: T2, human serum albumin (HSA) (Homo sapiens, UniProt P02768); test: Cleavage of HSA as substrate; assay type: biochemical; details: HSA 0.025%
T2 construct: purchased Wako Pure Chemical Industries, Ltd
Experimental: as §2

SOD1 2-38 = SOD1 2-38 (Homo sapiens, UniProt P00441); test: Hydrolysis activity against SOD1 2-38; assay type: biochemical; details: Example 3 (1); substrate SOD1 2-38 or SOD1 2-12
Experimental: As a control, physiological saline (0.9 w/v %) was used instead of the buffer solution. […] Also, it is considered that physiological saline is suitable for storage of JAL before use, for example.
Next, an experiment was conducted to consider an optimal pH for activity using JAL as the hydrolytic peptide and SOD1 2-38 as a substrate.
Metal ions to be added to a reaction solution were Zn^2+, Ca^2+, Co^2+, or combinations thereof. The concentrations of the metal ions in the respective reaction solutions were as follows: 10 mmol/l for Ca^2+; and 5 μmol/l for the other metal ions.
as §1

[3] = Autodigestion of the catalytic peptide (HPLC, MS); assay type: biochemical
Experimental: First, to a buffer solution (Tris-HCl, pH 6.5, final concentration: 100 mmol/l), JAL (final concentration: 0.2 mmol/l) and the fragment peptide of hMMP7 (final concentration 0.05 mmol/l) were added. […] Thereafter, the reaction solution was subjected to HPLC, and the peaks of JAL and the fragment peptide of hMMP7 were examined. HPLC was performed under the following conditions.
Next, the mechanism of autodigestion was examined using various mutants of JAL as hydrolytic peptides. To a reaction solution containing each of the mutants of JAL, a protease inhibitor (trade name: Roche cOmplete, Roche) was added to cause a reaction. One tablet of the protease inhibitor was dissolved in 1 ml of Milli-Q water, and then, 50 μl of the resultant mixture was added to the reaction solution. […] As a result, the autodigestion of all the peptides subjected to the measurement was inhibited (FIG. 16).
Autodigestion in Box B was examined.
JAL-TA9 was reacted in the same manner except that a substrate was not added to examine the autodigestion of JAL-TA9.
The influence of an inhibitor on autodigestion of JAL-TA9 was examined. […] As the protease inhibitor, the serine protease inhibitor AEBSF, which inhibited the autodigestion of JAL 12-22 C19M in the item (6) in Example 4, was used.

solid (insoluble) Aβ1-42 = solid (insoluble) Aβ1-42 (Homo sapiens, UniProt P05067); test: Hydrolysis activity against solid (insoluble) Aβ1-42
Experimental: As a solid substrate, a crystal of Aβ42 was used. […] In the case of MS analysis, the MS analysis was performed after applying 100 μl of the reaction solution to HPLC and collecting an aliquot of the peak.

αA-crystallin = molecular target: T3, αA-crystallin (Homo sapiens, UniProt P02489); test: Degradation of αA-crystallin 71-88 fragment peptide; assay type: biochemical
T3 construct: consisting of 71-88 residues of αA-crystallin; made in house; host or cells: chemical synthesis (Setsunan University)
From the text: As a substrate, a fragment peptide with the following sequence consisting of 71-88 residues of αA-crystallin (synthesized in Setsunan University) was used.

[4] = molecular target: soluble Aβ1-42 (Aβ42 authentic sample) (Homo sapiens, UniProt P05067); test: Hydrolysis activity against soluble Aβ1-42 (authentic sample)
Experimental: as §5
Aβ42 was used as a substrate. […] In the case of MS analysis, the MS analysis was performed after applying 20 μl of the reaction solution after the reaction for 7 days to HPLC and collecting an aliquot of the peak.

Aβ1-20 and Aβ11-29 = test: Reaction rates / Km for Aβ1-20 and Aβ11-29; assay type: biochemical; details: Aβ-F 0.05, 0.2 or 0.4 mmol/l, 0 or 1 hour
Experimental: HPLC was performed with the Aβ-F concentration in a reaction solution being set to 0.05, 0.2, or 0.4 mmol/l and a reaction time being set to 0 hours or 1 hour. Then, on the basis of the reduction rate of the peak of each Aβ-F, the Km value was determined.

Aβ11-29 [5] = molecular target: T4, Aβ11-29 (Homo sapiens, UniProt P05067); test: Hydrolysis activity against Aβ11-29
Experimental: as §4, §5
As a substrate, Aβ11-29, which is a fragment peptide of Aβ42, was used. […] In the case of MS analysis, the MS analysis was performed after applying 20 μl of the reaction solution after the reaction for 6 days to HPLC and collecting an aliquot of the peak.
as §6
The reaction solution V shown in FIG. 52 was incubated at 37° C. for a predetermined time, and autodigestion of ANA-YA4 (YRMI) and cleavage of Aβ11-29 were examined.
A reaction solution VI shown in FIG. 52 was incubated at 37° C. for a predetermined time, and cleavage of Aβ1-20 and Aβ11-29 by ANA-SA5 was examined.
as §7
The present example examined autodigestion and activity against Aβ-F of JAL 12-17 (YKGSGF) and JAL 12-16 (YKGSG). […] As a substrate, the same Aβ11-29 as used in Example 7 was used. The autodigestion was examined by causing the reaction in the same manner, except that the substrate was not added.

Tau MBD 1-30 = Tau MBD 1-30 (Homo sapiens, UniProt P10636); test: Hydrolysis activity against Tau MBD 1-30; assay type: biochemical
From the text: As a substrate, a Tau microtubule binding domain (MBD)-derived fragment (Tau MBD1-30) was used.

Aβ42 = Aβ42 (Homo sapiens, UniProt P05067); test: Intermolecular interaction with Aβ42 (AFFINX QNμ); assay type: binding; details: JAL-TA9 immobilized on platinum electrode
From the text: (§3) Intermolecular interactions of JAL-TA9 with Aβ42 and with Aβ-F were examined using an AFFINX QNμ (trade name, INITIUM, Inc.) in accordance with its protocol. The results obtained are shown in the graphs of FIG. 40. In FIG. 40, X indicates the result obtained when JAL-TA9 was not immobilized on a platinum electrode, and Y indicates the result obtained when JAL-TA9 was immobilized on the platinum electrode.

Aβ11-29 [6] = molecular target: T4, Aβ11-29; test: Intermolecular interaction with Aβ11-29 (AFFINX QNμ); assay type: binding; details: JAL-TA9 immobilized on platinum electrode
From the text: as §3

Aβ28-42 = Aβ28-42 (Homo sapiens, UniProt P05067); test: Hydrolysis activity against Aβ28-42; assay type: biochemical
[7] = reaction solution composition 1 (PBS, HSA), 37° C., overnight

Sequence of Tau MBD 1-30 (P10636 609-638 limits assumed): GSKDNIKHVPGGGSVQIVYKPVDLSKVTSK
Sequence of SOD1 2-38 (P00441 2-38 limits assumed): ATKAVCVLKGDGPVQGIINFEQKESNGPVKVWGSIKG
T1 sequence (P02769 25-607): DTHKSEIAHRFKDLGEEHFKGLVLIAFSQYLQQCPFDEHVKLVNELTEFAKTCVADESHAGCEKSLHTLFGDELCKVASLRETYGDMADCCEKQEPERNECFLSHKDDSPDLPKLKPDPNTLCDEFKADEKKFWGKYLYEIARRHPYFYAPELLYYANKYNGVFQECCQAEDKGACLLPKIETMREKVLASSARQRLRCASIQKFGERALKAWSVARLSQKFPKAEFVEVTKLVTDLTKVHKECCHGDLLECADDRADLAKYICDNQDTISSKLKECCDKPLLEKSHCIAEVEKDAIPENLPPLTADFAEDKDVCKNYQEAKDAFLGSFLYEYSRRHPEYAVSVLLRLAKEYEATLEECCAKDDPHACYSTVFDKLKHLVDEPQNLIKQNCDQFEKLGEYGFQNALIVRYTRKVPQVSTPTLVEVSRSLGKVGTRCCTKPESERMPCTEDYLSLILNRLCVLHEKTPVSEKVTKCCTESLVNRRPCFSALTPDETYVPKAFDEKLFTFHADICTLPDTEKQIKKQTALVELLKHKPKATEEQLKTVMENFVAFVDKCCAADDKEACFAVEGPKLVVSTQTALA

YPEKPYKGSGFRMIHI [JAL 7-22 C19M]
hydrolysis activity of JAL mutants (SOD1 2-12): exhibited hydrolysis activity
cleavage of albumin as substrate [1]: cleavage by JAL was not observed
hydrolysis activity against Aβ1-20 (Aβ1-20; Example 3 (2), (6)): exhibited activity
cleavage of albumin as substrate [2]: cleavage by JAL was not observed
hydrolysis activity of JAL mutants (SOD1 2-38): exhibited hydrolysis activity
autodigestion in presence of protease inhibitor ([3]; HSA added, Roche cOmplete or AEBSF): fragments generated by autodigestion disappeared
autodigestion, effect of albumin ([3]; HSA or BSA (0.025%) added): enhanced

PYKGSGFRMI [JAL-TA9]
cleavage of solid Aβ42 (MS) (solid (insoluble) Aβ1-42; solid Aβ42): activity against the solid Aβ42 also was observed
degradation of Aβ42 (HPLC) (solid (insoluble) Aβ1-42; solid Aβ42, reaction solution composition 2): degraded both types of Aβ42
fragment identification by MS (αA-crystallin): fragments of αA-crystallin resulting from the cleavage by JAL-TA9 were detected
degradation of αA-crystallin (αA-crystallin; JAL-TA9 0.2 mmol/l, PBS, HSA, reaction for 1 day): could degrade αA-crystallin
degradation of Aβ42 (HPLC) ([4]; authentic sample Aβ42, reaction solution composition 1): degraded both types of Aβ42
cleavage sites in Aβ42 (MS) ([4]; soluble authentic sample, 7 days): cleaved at a plurality of sites
region of Aβ42 cleaved ([4]; summary of cleavage sites, FIG. 39): strong cleavage activity was exhibited against an intermediate region of Aβ42
Km value, affinity of substrate to peptide (Aβ1-20 and Aβ11-29): Aβ11-29 has higher affinity to JAL-TA9 than Aβ1-20
cleavage sites in Aβ-Fs (MS) (Aβ11-29 [5]; Example 7): cleaved at a plurality of sites
degradation of Aβ-Fs (HPLC) (Aβ11-29 [5]; [7]): degraded all the Aβ-Fs
fragment identification by MS (Tau MBD 1-30; reaction for 1 day): fragments of Tau MBD 1-30 resulting from the cleavage by JAL-TA9
fragment identification by MS (Tau MBD 1-30; reaction for 5 days): fragments of Tau MBD 1-30 resulting from the cleavage by JAL-TA9
degradation of Tau MBD 1-30 (HPLC) (Tau MBD 1-30; reaction solution composition 3, 37° C., overnight): degraded Tau MBD 1-30
intermolecular interaction (Aβ42): strong interaction
intermolecular interaction (Aβ11-29 [6]): strong interaction
cleavage sites in Aβ-Fs (MS) (Aβ1-20; Example 7): cleaved at a plurality of sites
degradation of Aβ-Fs (HPLC) (Aβ1-20; [7]): degraded all the Aβ-Fs
cleavage sites in Aβ-Fs (MS) (Aβ28-42; Example 7): cleaved at a plurality of sites
degradation of Aβ-Fs (HPLC) (Aβ28-42; [7]): degraded all the Aβ-Fs
autodigestion in presence of protease inhibitor ([3]; AEBSF 6 mmol/l): autodigestion was inhibited
autodigestion ([3]; Example 7, substrate not added): autodigestion of JAL-TA9 was observed
autodigestion ([3]; Example 13, with αA-crystallin fragment): digested itself
autodigestion in presence of protease inhibitor ([3]; reaction solution IV, 6 hours): inhibited by the protease inhibitor
